Reference: paper PMC6775164
Several values for one entry are separate records, joined by “and”; a condition that tells them apart may be missing. Identical values can stand only once.

What was measured:
[1] = molecular target: P74-26 major capsid protein (gene product 86) (bacteriophage P74-26); assay: cryo-EM structure; single-particle reconstruction of the capsid of purified P74-26 virions with icosahedral symmetry imposed; virions in 50 mM Tris pH 8.0, 10 mM NaCl, 10 mM MgCl2; 2.8 Å (0.143 FSC)
[2] = molecular target: P74-26 decoration protein (gene product 87) (bacteriophage P74-26); assay: as above

Row | stoichiometry N [1] | stoichiometry N [2] | Substance
1 | 5 and 6 |  | P74-26 major capsid protein (gene product 86) (natural protein)
2 |  | 3 | P74-26 decoration protein (gene product 87) (natural protein)
